From patent publication US20030044814

B1: PRC17 (wild type) (protein)
chain: MDVVEVAGSWWAQEREDIIMKYEKGHRAGLPEDKGPKPFRSYNNNVDHLGIVHETELPPLTAREAKQIRREISRKSKWVDMLGDWEKYKSSRKLIDRAYKGMPMNIRGPMWSVLLNIEEMKLKNPGRYQIMKEKGKRSSEHIQRIDRDVSGTLRKHIFFRDRYGTKQRELLHILLAYEEYNPEVGYCRDLSHIAALFLLYLPEEDAFWALVQLLASERHSLQGFHSPNGGTVQGLQDQQEHVVATSQPKTMGHQDKKDLCGQCSPLGCLIRILIDGISLGLTLRLWDVYLVEGEQALMPITRIAFKVQQKRLTKTSRCGPWARFCNRFVDTWARDEDTVLKHLRASMKKLTRKQGDLPPPAKPEQGSSASRPVPASRGGKTLCKGDRQAPPGPPARFPRPIWSASPPRAPRSSTPCPGGAVREDTYPVGTQGVPSPALAQGGPQGSWRFLQWNSMPRLPTDLDVEGPWFRHYDFRQSCWVRAISQEDQLAPCWQAEHPAERVRSAFAAPSTDSDQGTPFRARDEQPCAPTSGPCLCGLHLESSQFPPGF
B2: mutant form PRC17 (Arg107 and Asp148 substituted by alanines) (protein)
chain: MDVVEVAGSWWAQEREDIIMKYEKGHRAGLPEDKGPKPFRSYNNNVDHLGIVHETELPPLTAREAKQIRREISRKSKWVDMLGDWEKYKSSRKLIDRAYKGMPMNIAGPMWSVLLNIEEMKLKNPGRYQIMKEKGKRSSEHIQRIDRAVSGTLRKHIFFRDRYGTKQRELLHILLAYEEYNPEVGYCRDLSHIAALFLLYLPEEDAFWALVQLLASERHSLQGFHSPNGGTVQGLQDQQEHVVATSQPKTMGHQDKKDLCGQCSPLGCLIRILIDGISLGLTLRLWDVYLVEGEQALMPITRIAFKVQQKRLTKTSRCGPWARFCNRFVDTWARDEDTVLKHLRASMKKLTRKQGDLPPPAKPEQGSSASRPVPASRGGKTLCKGDRQAPPGPPARFPRPIWSASPPRAPRSSTPCPGGAVREDTYPVGTQGVPSPALAQGGPQGSWRFLQWNSMPRLPTDLDVEGPWFRHYDFRQSCWVRAISQEDQLAPCWQAEHPAERVRSAFAAPSTDSDQGTPFRARDEQPCAPTSGPCLCGLHLESSQFPPGF

Target: Rab5 (recombinant, purified from E. coli)

| Protein | GTP hydrolysis assay (percentage of non-hydrolysed [gamma-32P]GTP remaining bound to filters) |
| --- | --- |
| B1 | Addition of wild type PRC17 resulted in a 30% reduction of GTP-bound Rab5 |
| B2 | addition of the mutant form PRC17 had no effect on Rab5 GTP-hydrolysis |
